Square brackets hold non-standard residues; d marks the D form. Ends that are not written are not given here. pT = C[C@@H](OP(=O)(O)O)[C@H](N)C(=O)O

33 sequences from US11065314B2, “Peptides and combination of peptides for use in immunotherapy against breast cancer and other cancers” (Immatics Biotechnologies GmbH, priority 2015, dated 2021) can be followed below.

In the experiment the target is HLA-A*02:01 (Homo sapiens, UniProt P04439, D140Y/D185E/D98H/E176V/E277Q/G131W/G231S/I119V/I121R/I166T/I218V/L300P/L318F/N151K/N90K/P208A/P217A/Q86G/Q94H/R138H/R169H/T345S). In words: MHC binding assay: UV-ligand exchange with β2m ELISA. The conditions noted are these: binding to HLA-A*02:01, UV-ligand exchange. From the text:
Candidate peptides for T cell based therapies according to the present invention were further tested for their MHC binding capacity (affinity). The individual peptide-MHC complexes were produced by UV-ligand exchange, where a UV-sensitive peptide is cleaved upon UV-irradiation, and exchanged with the peptide of interest as analyzed. Only peptide candidates that can effectively bind and stabilize the peptide-receptive MHC molecules prevent dissociation of the MHC complexes. To determine the yield of the exchange reaction, an ELISA was performed based on the detection of the light chain (β2m) of stabilized MHC complexes. The assay was performed as generally described in Rodenko et al. (Rodenko et al., 2006).
96 well MAXISorp plates (NUNC) were coated over night with 2 ug/ml streptavidin in PBS at room temperature, washed 4× and blocked for 1 h at 37° C. in 2% BSA containing blocking buffer. Refolded HLA-A*02:01/MLA-001 monomers served as standards, covering the range of 15-500 ng/ml. Peptide-MHC monomers of the UV-exchange reaction were diluted 100-fold in blocking buffer. Samples were incubated for 1 h at 37° C., washed four times, incubated with 2 ug/ml HRP conjugated anti-β2m for 1 h at 37° C., washed again and detected with TMB solution that is stopped with […]. Absorption was measured at 450 nm. Candidate peptides that show a high exchange yield (preferably higher than 50%, most preferred higher than 75%) are generally preferred for a generation and production of antibodies or fragments thereof, and/or T cell receptors or fragments thereof, as they show sufficient avidity to the MHC molecules and prevent dissociation of the MHC complexes.

On to “ALEAUQLYL (ALEA[pT]QLYL; listed as Homo sapiens) [SEQ ID NO: 29, HLA-A*02 peptide, source gene DEPDC4; U = phospho-threonine]”, for which the “Peptide Exchange (peptide exchange yield)” value (from here on “Peptide Exchange”) was ““+++” (≥50 = +++)”.

With “ALEEQLHQV (listed as Homo sapiens) [SEQ ID NO: 19, HLA-A*02 peptide, source genes KRT25, KRT28, KRT27]”, the “Peptide Exchange” value is reported as ““++” (≥20% = ++)”.

As to “ALNPVIYTV (listed as Homo sapiens) [SEQ ID NO: 5, HLA-A*02 peptide, source gene DRD4]”, the “Peptide Exchange” value was ““++” (≥20% = ++)”.

On to “ALTALQNYL (listed as Homo sapiens) [SEQ ID NO: 6, HLA-A*02 peptide, source gene TFAP2B]”, for which the “Peptide Exchange” value was ““+++” (≥50 = +++)”.

For “FIIPTVATA (listed as Homo sapiens) [SEQ ID NO: 7, HLA-A*02 peptide, source gene ABCC11]”, the “Peptide Exchange” value is reported as ““++++” (≥75% = ++++)”.

Regarding “FLDEEVKLI (listed as Homo sapiens) [SEQ ID NO: 43, HLA-A*02 peptide, source gene FTL]”, the “Peptide Exchange” value is listed as ““+++” (≥50 = +++)”.

“FLSSEAANV (listed as Homo sapiens) [SEQ ID NO: 30, HLA-A*02 peptide, source gene TNFAIP2]”: the “Peptide Exchange” value was ““++” (≥20% = ++)”.

Regarding “FLVEHVLTL (listed as Homo sapiens) [SEQ ID NO: 42, HLA-A*02 peptide, source gene printed 5LC39A6]”, the “Peptide Exchange” value is on record as ““++++” (≥75% = ++++)”.

On to “FMSKLVPAI (listed as Homo sapiens) [SEQ ID NO: 9, HLA-A*02 peptide, source gene TPRG1]”, for which the “Peptide Exchange” value is given as ““+++” (≥50 = +++)”.

Consider “FSFPVSVGV (listed as Homo sapiens) [SEQ ID NO: 20, HLA-A*02 peptide, source gene DUSP4]”, for which the “Peptide Exchange” value is recorded as ““+++” (≥50 = +++)”.

Turning to “GLHSLPPEV (listed as Homo sapiens) [SEQ ID NO: 10, HLA-A*02 peptide, source gene LRRC8E]”, the “Peptide Exchange” value is ““+++” (≥50 = +++)”.

Take “GLLPTSVSPRV (listed as Homo sapiens) [SEQ ID NO: 11, HLA-A*02 peptide, source gene SCUBE2]”: the “Peptide Exchange” value is listed as ““++” (≥20% = ++)”.

Regarding “GLSYIYNTV (listed as Homo sapiens) [SEQ ID NO: 31, HLA-A*02 peptide, source gene COG6]”, the “Peptide Exchange” value is ““++” (≥20% = ++)”.

As to “GLVATLQSL (listed as Homo sapiens) [SEQ ID NO: 32, HLA-A*02 peptide, source gene IFI6]”, the “Peptide Exchange” value is recorded as ““+++” (≥50 = +++)”.

With “GLVQSLTSI (listed as Homo sapiens) [SEQ ID NO: 8, HLA-A*02 peptide, source gene ABCC11]”, the “Peptide Exchange” value is reported as ““++++” (≥75% = ++++)”.

“ILFDVVVFL (listed as Homo sapiens) [SEQ ID NO: 25, HLA-A*02 peptide, source gene C4orf3]”: the “Peptide Exchange” value is ““++” (≥20% = ++)”.

As to “ILTELPPGV (listed as Homo sapiens) [SEQ ID NO: 33, HLA-A*02 peptide, source gene ZNF407]”, the “Peptide Exchange” value is given as ““++” (≥20% = ++)”.

Take “KAFPFYNTV (listed as Homo sapiens) [SEQ ID NO: 12, HLA-A*02 peptide, source gene NAIP]”: the “Peptide Exchange” value is given as ““++” (≥20% = ++)”.

For “KLLDMELEM (listed as Homo sapiens) [SEQ ID NO: 39, HLA-A*02 peptide, source gene FAH]”, the “Peptide Exchange” value is on record as ““++++” (≥75% = ++++)”.

Take “KLYEGIPVL (listed as Homo sapiens) [SEQ ID NO: 13, HLA-A*02 peptide, source gene NEK10]”: the “Peptide Exchange” value is ““++” (≥20% = ++)”.

Regarding “KQLELELEV (listed as Homo sapiens) [SEQ ID NO: 14, HLA-A*02 peptide, source gene MUC6]”, the “Peptide Exchange” value is recorded as ““+++” (≥50 = +++)”.

As to “LLMUVAGLKL (LLM[pT]VAGLKL; listed as Homo sapiens) [SEQ ID NO: 38, HLA-A*02 peptide, source gene PCNXL3; U = phospho-threonine]”, the “Peptide Exchange” value is ““++++” (≥75% = ++++)”.

For the sequence “SLAEPRVSV (listed as Homo sapiens) [SEQ ID NO: 27, HLA-A*02 peptide, source gene FASN]”, the “Peptide Exchange” value is reported as ““+++” (≥50 = +++)”.

As to “SLAWDVPAA (listed as Homo sapiens) [SEQ ID NO: 26, HLA-A*02 peptide, source gene FASN]”, the “Peptide Exchange” value is given as ““+++” (≥50 = +++)”.

As for “SLFPSLVVV (listed as Homo sapiens) [SEQ ID NO: 15, HLA-A*02 peptide, source gene PLEC]”, the “Peptide Exchange” value was ““+++” (≥50 = +++)”.

As for “SLFSVPFFL (listed as Homo sapiens) [SEQ ID NO: 28, HLA-A*02 peptide, source gene TM9SF1]”, the “Peptide Exchange” value is given as ““++++” (≥75% = ++++)”.

In the case of “SLLSEIQAL (listed as Homo sapiens) [SEQ ID NO: 35, HLA-A*02 peptide, source genes AKAP9, PCNT]”, the “Peptide Exchange” value is listed as ““++++” (≥75% = ++++)”.

Consider “SLNDQGYLL (listed as Homo sapiens) [SEQ ID NO: 41, HLA-A*02 peptide, source gene MCM8]”, for which the “Peptide Exchange” value is reported as ““+++” (≥50 = +++)”.

As for “SLVEGEAVHLA (listed as Homo sapiens) [SEQ ID NO: 4, HLA-A*02 peptide, source genes TFAP2E, TFAP2A, TFAP2B, TFAP2C]”, the “Peptide Exchange” value is ““++” (≥20% = ++)”.

Turning to “SMMGLLTNL (listed as Homo sapiens) [SEQ ID NO: 16, HLA-A*02 peptide, source gene ESR1]”, the “Peptide Exchange” value is ““++++” (≥75% = ++++)”.

“TIASSIEKA (listed as Homo sapiens) [SEQ ID NO: 17, HLA-A*02 peptide, source gene STPG2]”: the “Peptide Exchange” value is ““++” (≥20% = ++)”.

As to “TLLGLAVNV (listed as Homo sapiens) [SEQ ID NO: 36, HLA-A*02 peptide, source gene CHPT1]”, the “Peptide Exchange” value is given as ““++++” (≥75% = ++++)”.

Turning to “YILLQSPQL (listed as Homo sapiens) [SEQ ID NO: 18, HLA-A*02 peptide, source gene MUC6]”, the “Peptide Exchange” value was ““++++” (≥75% = ++++)”.
